Test results: patent publication US20230049752A1 (University of California, published 2023)

Legend:
[1] = biological target: human Claudin-6 (CLDN6) (human) (UniProt P56747); assay: FACS, limiting dilution, UMUC4 cells
[2] = biological target: human Claudin-6 (CLDN6) (human) (UniProt P56747); assay: FACS, limiting dilution, ARK2 cells
[3] = biological target: human Claudin-6 (CLDN6) (human) (UniProt P56747); assay: FACS, limiting dilution, OV90 cells

Binder	FACS signal at 0.32 nM [1]	FACS signal at 1.6 nM [1]	FACS signal at 8 nM [1]	FACS signal at 40 nM [1]	FACS signal at 200 nM [1]	FACS signal at 0.32 nM [2]	FACS signal at 1.6 nM [2]	FACS signal at 8 nM [2]	FACS signal at 0.32 nM [3]	FACS signal at 1.6 nM [3]	FACS signal at 8 nM [3]	FACS signal at 1000 nM [1]	FACS signal at 40 nM [2]	FACS signal at 40 nM [3]	FACS signal at 200 nM [3]	FACS signal at 200 nM [2]	FACS signal at 1000 nM [3]
AB S9 (antibody, V domains shown) VH: QVQLVQSGAEVKKPGASVKMSCKASGYTFTTYTIHWVRQAPGQGLEWIGVINPSSGYTDYAQKFQGRVTLTADKSTSTVYMELSSLRSEDTAVYFCANGDYYVGYWGQGTLVTVSS VL: DIQLTQSPSSLSASVGDRVTMTCTASSSVSSTYFHWYQQKPGKAPKLWIYSTSNLASGVPSRFSGSGSGTDYTLTISSMQPEDAATYYCHQYHRSPLTFGQGTKLEIK	1910	11600	19200	23900	35600	2990	16400	54600	2940	14000	48500	–	–	–	–	–	–
AB S10 (antibody, V domains shown) VH: QVQLVQSGAEVKKPGASVKMSCKASGYTFTTYTMHWVRQAPGQGLEWIGFINPSSGYTEYAQKFQGRVTLTADKSTSTVYMELSSLRSEDTAVYYCANGDYYVGYWGQGTLVTVSS VL: DIQLTQSPSSLSASVGDRVTMTCTASSSVSSTYFHWYQQKPGKAPKLWIYSTSNLASGVPSRFSGSGSGTDYTLTISSMQPEDAATYYCHQYHRSPLTFGQGTKLEIK	874	2540	6850	9940	22200	2080	7690	27500	862	4690	16300	35100	68200	50400	87900	–	–
AB S11 (antibody, V domains shown) VH: QVQLVQSGAEVKKPGASVKMSCKASGYTFTTYTIHWVRQAPGQGLEWIGVINPSSGYTEYAQKFQGRVTLTADKSTSTVYMELSSLRSEDTAVYFCANGDYYVAYWGQGTLVTVSS VL: DIQLTQSPSSLSASVGDRVTMTCTASSSVSSTYFHWYQQKPGKAPKLWIYSTSNLASGVPSRFSGSGSGTDYTLTISSMQPEDAATYYCHQYHRSPLTFGQGTKLEIK	2350	2770	7000	12800	19900	2130	6100	20200	1460	4950	14700	33400	59400	44900	85600	–	–
AB S12 (antibody, V domains shown) VH: QVQLVQSGAEVKKPGASVKMSCKASGYTFTTYTMHWVRQAPGQGLEWIGFINPSSGYTEYAQKFQGRVTLTADKSTSTVYMELSSLRSEDTAVYFCANGDYYVGYWGQGTLVTVSS VL: DIQLTQSPSSLSASVGDRVTMTCTASSSVSSTYFHWYQQKPGKAPKLWIYSTSNLASGVPSRFSGSGSGTDYTLTISSMQPEDAATYYCHQYHRSPLTFGQGTKLEIK	947	1910	5040	14800	37500	1310	2080	8850	638	1260	4630	–	22900	14600	38300	62300	83400
AB S1 (antibody, V domains shown) VH: EVQLLESGGGLVQPGGSMRLSCAASGFTFSNYWMNWVRQAPGKGLEWIAQIRLKSDNYATHYTDSVKGRFTISRDDSKRTVYLQMNSLRAEDTGTYYCSDGPPSGSWGQGTLLTVSS VL: DIQMTQSPSSLSASVGDRVTITCRISENIYSYLAWYQQKPGKAPKLLVYNAKILVEGVPSRFSGSGSGTDFTLTISSLQPEDFGTYYCQHHYTVPWTFGQGTKLEIK	639	767	2330	6680	18700	466	1380	3850	475	668	2390	41500	25800	10500	43500	62500	–
AB S2 (antibody, V domains shown) VH: EVQLLESGGGLVQPGGSMRLSCAASGFTFSNYWMNWVRQAPGKGLEWIAQIRLKSDNYATHYADSVKGRFTISRDDSKRTVYLQMNSLRAEDTGTYYCSDGPPSGSWGQGTLLTVSS VL: DIQMTQSPSSLSASVGDRVTITCRISENIYSYLAWYQQKPGKAPKLLVYNAKILVEGVPSRFSGSGSGTDFTLTISSLQPEDFGTYYCQHHYTVPWTFGQGTKLEIK	505	746	2270	6970	20000	608	956	4840	537	1510	3950	–	21000	18100	53400	83400	–
